From patent publication US11584938B2, “Plant EPSPS mutant containing L195P and S247G mutations and encoding gene and use thereof” (GEVOTO LLC, priority 2017, dated 2023)

B1: T0: wild-type wheat EPSPS, amino acid sequence SEQ ID NO: 14; control (protein, listed as Triticum aestivum)
chain: MATSVAAPAAPAGAEEVVLQPIREISGAVQLPGSKSLSNRILLLSALSEGTTVVDNLLNSEDVHYMLEALEALGLSVEADKVAKRAVVVGCGGRFPVEKDAKEEVKLFLGNAGTAMRPLTAAVVAAGGNATYVLDGVPRMRERPIGDLVVGLQQLGADVDCFLGTNCPPVRINGKGGLPGGKVKLSGSISSQYLSSLLMAAPLALEDVEIEIIDKLISVPYVEMTLKLMEHFGVTAEHSDSWDRFYIKGGQKYKSPGNAYVEGDASSASYFLAGAAITGGTVTVEGCGTTSLQGDVKFAEVLEMMGAKVTWTDTSVTVTGPPRQPFGRKHLKAVDVNMNKMPDVAMTLAVVALFADGPTAIRDVASWRVKETERMVAIRTELTKLGATVEEGPDYCIITPPEKLNITAIDTYDDHRMAMAFSLAACAEVPVTIRDPGCTRKTFPNYFDVLSTFVKN
B2: T1: wheat EPSPS mutant, SEQ ID NO: 16, mutation S269(247)G (protein)
chain: MATSVAAPAAPAGAEEVVLQPIREISGAVQLPGSKSLSNRILLLSALSEGTTVVDNLLNSEDVHYMLEALEALGLSVEADKVAKRAVVVGCGGRFPVEKDAKEEVKLFLGNAGTAMRPLTAAVVAAGGNATYVLDGVPRMRERPIGDLVVGLQQLGADVDCFLGTNCPPVRINGKGGLPGGKVKLSGSISSQYLSSLLMAAPLALEDVEIEIIDKLISVPYVEMTLKLMEHFGVTAEHSDSWDRFYIKGGQKYKSPGNAYVEGDASSAGYFLAGAAITGGTVTVEGCGTTSLQGDVKFAEVLEMMGAKVTWTDTSVTVTGPPRQPFGRKHLKAVDVNMNKMPDVAMTLAVVALFADGPTAIRDVASWRVKETERMVAIRTELTKLGATVEEGPDYCIITPPEKLNITAIDTYDDHRMAMAFSLAACAEVPVTIRDPGCTRKTFPNYFDVLSTFVKN
B3: T3: wheat EPSPS mutant, SEQ ID NO: 20, mutations S269(247)G and P118(101)S (protein)
chain: MATSVAAPAAPAGAEEVVLQPIREISGAVQLPGSKSLSNRILLLSALSEGTTVVDNLLNSEDVHYMLEALEALGLSVEADKVAKRAVVVGCGGRFPVEKDAKEEVKLFLGNAGTAMRSLTAAVVAAGGNATYVLDGVPRMRERPIGDLVVGLQQLGADVDCFLGTNCPPVRINGKGGLPGGKVKLSGSISSQYLSSLLMAAPLALEDVEIEIIDKLISVPYVEMTLKLMEHFGVTAEHSDSWDRFYIKGGQKYKSPGNAYVEGDASSAGYFLAGAAITGGTVTVEGCGTTSLQGDVKFAEVLEMMGAKVTWTDTSVTVTGPPRQPFGRKHLKAVDVNMNKMPDVAMTLAVVALFADGPTAIRDVASWRVKETERMVAIRTELTKLGATVEEGPDYCIITPPEKLNITAIDTYDDHRMAMAFSLAACAEVPVTIRDPGCTRKTFPNYFDVLSTFVKN
B4: T2: wheat EPSPS mutant, SEQ ID NO: 18, merely containing the mutation P118(101)S; control (protein)
chain: MATSVAAPAAPAGAEEVVLQPIREISGAVQLPGSKSLSNRILLLSALSEGTTVVDNLLNSEDVHYMLEALEALGLSVEADKVAKRAVVVGCGGRFPVEKDAKEEVKLFLGNAGTAMRSLTAAVVAAGGNATYVLDGVPRMRERPIGDLVVGLQQLGADVDCFLGTNCPPVRINGKGGLPGGKVKLSGSISSQYLSSLLMAAPLALEDVEIEIIDKLISVPYVEMTLKLMEHFGVTAEHSDSWDRFYIKGGQKYKSPGNAYVEGDASSASYFLAGAAITGGTVTVEGCGTTSLQGDVKFAEVLEMMGAKVTWTDTSVTVTGPPRQPFGRKHLKAVDVNMNKMPDVAMTLAVVALFADGPTAIRDVASWRVKETERMVAIRTELTKLGATVEEGPDYCIITPPEKLNITAIDTYDDHRMAMAFSLAACAEVPVTIRDPGCTRKTFPNYFDVLSTFVKN
B5: T4: wheat EPSPS mutant, SEQ ID NO: 22, mutation L216(195)P (protein)
chain: MATSVAAPAAPAGAEEVVLQPIREISGAVQLPGSKSLSNRILLLSALSEGTTVVDNLLNSEDVHYMLEALEALGLSVEADKVAKRAVVVGCGGRFPVEKDAKEEVKLFLGNAGTAMRPLTAAVVAAGGNATYVLDGVPRMRERPIGDLVVGLQQLGADVDCFLGTNCPPVRINGKGGLPGGKVKLSGSISSQYLSSLLMAAPLALEDVEIEIIDKPISVPYVEMTLKLMEHFGVTAEHSDSWDRFYIKGGQKYKSPGNAYVEGDASSASYFLAGAAITGGTVTVEGCGTTSLQGDVKFAEVLEMMGAKVTWTDTSVTVTGPPRQPFGRKHLKAVDVNMNKMPDVAMTLAVVALFADGPTAIRDVASWRVKETERMVAIRTELTKLGATVEEGPDYCIITPPEKLNITAIDTYDDHRMAMAFSLAACAEVPVTIRDPGCTRKTFPNYFDVLSTFVKN
B6: T5: wheat EPSPS mutant, SEQ ID NO: 24, mutations L216(195)P and S269(247)G (protein)
chain: MATSVAAPAAPAGAEEVVLQPIREISGAVQLPGSKSLSNRILLLSALSEGTTVVDNLLNSEDVHYMLEALEALGLSVEADKVAKRAVVVGCGGRFPVEKDAKEEVKLFLGNAGTAMRPLTAAVVAAGGNATYVLDGVPRMRERPIGDLVVGLQQLGADVDCFLGTNCPPVRINGKGGLPGGKVKLSGSISSQYLSSLLMAAPLALEDVEIEIIDKPISVPYVEMTLKLMEHFGVTAEHSDSWDRFYIKGGQKYKSPGNAYVEGDASSAGYFLAGAAITGGTVTVEGCGTTSLQGDVKFAEVLEMMGAKVTWTDTSVTVTGPPRQPFGRKHLKAVDVNMNKMPDVAMTLAVVALFADGPTAIRDVASWRVKETERMVAIRTELTKLGATVEEGPDYCIITPPEKLNITAIDTYDDHRMAMAFSLAACAEVPVTIRDPGCTRKTFPNYFDVLSTFVKN

Test system: double knockout E. coli (EPSPS defective E. coli, EDCE)
Experiment: growth of EPSPS defective E. coli transformed by the EPSPS gene in M9 culture media containing different glyphosate concentrations
Format: cell-based, E. coli DH5α
Conditions: for EPSPS enzyme activity: concluded from growth of defective E. coli at 0 mM glyphosate
Source text: A method for detecting the glyphosate resistance of the soybean EPSPS mutant G1 provided in Example 1 and the soybean EPSPS mutant G3 provided in Example 2 is as follows:
according to the sequence of the nucleic acid molecule provided in the example, synthesizing the encoding gene that encodes the soybean EPSPS mutant G1 or G3 using a chemical synthesis method, introducing enzyme sites (Pac1 and Sbf1) at two ends thereof, connecting to an expression vector (for example, a pADV5 vector, the structure of which is as shown in FIG. 15) that has undergone the same restriction enzyme digestion treatment under the action of ligase after restriction enzyme digestion, then transforming double knockout E. coli, picking positive colonies after verification, inoculating the positive colonies to M9 culture media containing different glyphosate concentrations for growth, and observing the growth situation of the E. coli.
The wild-type soybean EPSPS (with an amino acid sequence represented by SEQ ID NO: 2 and an encoding gene sequence represented by SEQ ID NO: 1) and the soybean EPSPS mutant G2 (with an amino acid sequence represented by SEQ ID NO: 6, and a corresponding encoding gene sequence represented by SEQ ID NO: 5) merely containing the mutation P114(101)S were taken as controls.
In the above, the M9 basal culture medium can be prepared by the following method:
5×M9 salt solution: 6.78 g of Na2HPO4, 3.0 g of KH2PO4, 0.5 g of NaCl, and 1.0 g of NH4Cl were weighed, added with ddH2O to 200 ml, and subjected to high-temperature and high-pressure sterilization treatment;
20% glucose: 20 g of glucose was weighed, added with 80 ml of ddH2O for dissolving, diluted to 100 ml, and subjected to filtration and sterilization treatment;
1.0 M MgSO4: 24.6 g of MgSO4-7H2O was weighed, dissolved with 80 ml of ddH2O, diluted to 100 ml, and subjected to sterilization treatment;
1.0 M CaCl2: 11.1 g of CaCl2 was weighed, dissolved with 80 ml of ddH2O, diluted to 100 ml, and subjected to sterilization treatment; and
1000 ml of the M9 basal culture media were prepared by adding ddH2O to 200 ml of 5×M9 salt solution, 20 ml of 20% glucose, 2 ml of 1.0 M MgSO4 and 0.1 ml of 1.0 M CaCl2 to make up to 1000 ml.
In the above, the E. coli used was double knockout E. coli, namely, EPSPS defective E. coli (E. coli DH5α with EPSPS gene and C-P Lyase gene being knocked out, named as EDCE, wherein for a preparation method thereof, reference can be made to a Chinese invention patent with the filing number CN2016103256926).
The glyphosate resistance of the soybean EPSPS mutant G4 provided in Example 3 and the soybean EPSPS mutant G5 provided in Example 4 was verified with reference to the detection method in Experiment Example 1.
The wild-type wheat EPSPS (with an amino acid sequence represented by SEQ ID NO: 14, and a corresponding encoding gene sequence represented by SEQ ID NO: 13) and the wheat EPSPS mutant T2 (with an amino acid sequence represented by SEQ ID NO: 18, and a corresponding encoding gene sequence represented by SEQ ID NO: 17) merely containing the mutation P118(101)S were taken as controls to verify the glyphosate resistance of the wheat EPSPS mutants T1 and T3 provided in Example 5 and Example 6, and reference can be made to Experiment Example 1 for the method.
A method for verifying the glyphosate resistance of the wheat EPSPS mutants T4, T5, and T6 provided in Examples 7-9 is the same as that in Experiment Example 3.
The wild-type rice EPSPS R0 (with an amino acid sequence represented by SEQ ID NO: 28, and a corresponding encoding gene sequence represented by SEQ ID NO: 27) and the rice EPSPS mutant R2 (with an amino acid sequence represented by SEQ ID NO: 32, and a corresponding encoding gene sequence represented by SEQ ID NO: 31) merely containing the mutation P116(101)S were taken as controls to verify the glyphosate resistance of the rice EPSPS mutants R1 and R3 provided in Examples 10 and 11, and reference can be made to Experiment Example 1 for the method. […]

[1] = culture media containing 0 mM glyphosate
[2] = culture media containing 1 mM glyphosate
[3] = culture media containing 5 mM glyphosate
[4] = culture media containing 10 mM glyphosate

Molecule | growth of the E. coli transformed by the EPSPS [1] | growth of the E. coli transformed by the EPSPS [2] | glyphosate resistance (overall statement) | growth of the transformed E. coli compared with E. coli transformed by the control EPSPS named in the value [2] | growth of the E. coli transformed by the EPSPS [3] | growth of the E. coli transformed by the EPSPS [4] | growth of the transformed E. coli compared with E. coli transformed by the control EPSPS named in the value [4] | growth of the E. coli transformed by the EPSPS (culture media containing 20 mM glyphosate) | EPSPS enzyme activity
B1 | could grow | substantially could not grow | – | – | – | – | – | – | –
B2 | could grow | could grow normally | have glyphosate resistance | obviously superior to that of the E. coli transformed by T0 | did not grow obviously | – | – | – | –
B3 | could grow | could grow normally | have glyphosate resistance | – | – | could grow | obviously superior to that of the E. coli transformed by T2 | – | –
B4 | could grow | could grow normally | – | – | could grow | could grow | – | could grow | –
B5 | could grow | could grow normally | – | – | did not grow obviously | – | – | – | normal EPSPS enzyme activity
B6 | could grow | could grow normally | – | – | grew obviously | – | – | – | normal EPSPS enzyme activity
